Data set [1] concerns the target GST-XIAP fusion protein, P98170.
Data set [2] concerns the target GST-c-IAP-1, Q13490.
Data set [3] has as its target GST-c-IAP-2, Q13489.

GST-XIAP fusion protein, P98170, sequence (P98170 whole entry, the tested form may be a part): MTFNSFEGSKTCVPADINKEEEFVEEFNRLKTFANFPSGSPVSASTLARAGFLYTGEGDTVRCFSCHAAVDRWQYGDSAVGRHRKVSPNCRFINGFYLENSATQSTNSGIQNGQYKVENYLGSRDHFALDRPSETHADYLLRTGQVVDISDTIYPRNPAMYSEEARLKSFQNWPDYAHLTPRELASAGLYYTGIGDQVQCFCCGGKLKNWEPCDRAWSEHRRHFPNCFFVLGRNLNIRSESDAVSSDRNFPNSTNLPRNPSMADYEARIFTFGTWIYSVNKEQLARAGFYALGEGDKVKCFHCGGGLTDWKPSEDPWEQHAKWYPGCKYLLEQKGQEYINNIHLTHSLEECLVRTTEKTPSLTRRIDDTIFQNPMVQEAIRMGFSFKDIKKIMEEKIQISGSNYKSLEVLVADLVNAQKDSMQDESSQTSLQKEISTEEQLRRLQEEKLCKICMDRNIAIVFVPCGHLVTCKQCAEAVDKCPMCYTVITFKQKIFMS
GST-c-IAP-1, Q13490, sequence (Q13490 whole entry): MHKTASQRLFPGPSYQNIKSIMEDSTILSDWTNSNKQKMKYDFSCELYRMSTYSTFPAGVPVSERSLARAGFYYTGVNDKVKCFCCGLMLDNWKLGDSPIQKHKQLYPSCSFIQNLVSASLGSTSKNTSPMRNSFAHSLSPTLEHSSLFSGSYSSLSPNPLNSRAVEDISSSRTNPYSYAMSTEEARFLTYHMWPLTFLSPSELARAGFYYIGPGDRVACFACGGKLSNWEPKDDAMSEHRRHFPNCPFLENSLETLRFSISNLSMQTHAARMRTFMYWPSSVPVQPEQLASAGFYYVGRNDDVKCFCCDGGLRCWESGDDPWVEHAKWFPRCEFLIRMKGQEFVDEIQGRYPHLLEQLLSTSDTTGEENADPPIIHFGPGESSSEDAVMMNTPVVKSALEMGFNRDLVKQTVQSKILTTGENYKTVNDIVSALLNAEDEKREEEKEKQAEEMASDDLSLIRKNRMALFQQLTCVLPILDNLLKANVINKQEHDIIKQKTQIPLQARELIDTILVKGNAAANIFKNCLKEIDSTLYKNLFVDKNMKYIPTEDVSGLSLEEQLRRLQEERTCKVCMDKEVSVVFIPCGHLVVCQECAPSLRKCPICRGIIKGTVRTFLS
GST-c-IAP-2, Q13489, sequence (Q13489 whole entry): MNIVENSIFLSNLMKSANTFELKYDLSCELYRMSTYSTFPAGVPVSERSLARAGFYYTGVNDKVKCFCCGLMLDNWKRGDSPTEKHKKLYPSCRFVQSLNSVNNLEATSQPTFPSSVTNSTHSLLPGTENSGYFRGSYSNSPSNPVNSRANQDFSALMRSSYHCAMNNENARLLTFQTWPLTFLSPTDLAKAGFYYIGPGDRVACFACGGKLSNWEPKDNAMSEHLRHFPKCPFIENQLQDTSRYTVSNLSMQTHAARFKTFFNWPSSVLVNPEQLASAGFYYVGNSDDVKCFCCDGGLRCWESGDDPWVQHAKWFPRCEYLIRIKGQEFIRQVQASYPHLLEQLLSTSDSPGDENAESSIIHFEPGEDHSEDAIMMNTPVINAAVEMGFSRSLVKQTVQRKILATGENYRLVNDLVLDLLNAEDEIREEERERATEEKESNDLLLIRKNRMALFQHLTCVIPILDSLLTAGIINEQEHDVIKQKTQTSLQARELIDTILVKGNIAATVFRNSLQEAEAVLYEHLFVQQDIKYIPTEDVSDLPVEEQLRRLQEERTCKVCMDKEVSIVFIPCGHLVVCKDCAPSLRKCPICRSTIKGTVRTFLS

B1: purified recombinant caspase-1 (protein)
chain: NPAMPTSSGSEGNVKLCSLEEAQRIWKQKSAEIYPIMDKSSRTRLALIICNEEFDSIPRRTGAEVDITGMTMLLQNLGYSVDVKKNLTASDMTTELEAFAHRPEHKTSDSTFLVFMSHGIREGICGKKHSEQVPDILQLNAIFNMLNTKNCPSLKDKPKVIIIQACRGDSPGVVWFKDSVGVSGNLSLPTTEEFEDDAIKKAHIEKDFIAFCSSTPDNVSWRHPTMGSVFIGRLIEHMQEYACSCDVEEIFRKVRFSFEQPDGRAQMPTTERVTLTRCFYLFPGH
Turning to B1, the “substrate cleavage by purified caspase” value in data set [1] was “did not interfere with substrate cleavage by caspase-1, caspase-6 or caspase-8, even when added at a 50-fold molar excess”.

B2: purified recombinant active caspase-9 (His6-tagged) (protein)
chain: MDEADRRLLRRCRLRLVEELQVDQLWDALLSRELFRPHMIEDIQRAGSGSRRDQARQLIIDLETRGSQALPLFISCLEDTGQDMLASFLRTNRQAAKLSKPTLENLTPVVLRPEIRKPEVLRPETPRPVDIGSGGFGDVGALESLRGNADLAYILSMEPCGHCLIINNVNFCRESGLRTRTGSNIDCEKLRRRFSSLHFMVEVKGDLTAKKMVLALLELAQQDHGALDCCVVVILSHGCQASHLQFPGAVYGTDGCPVSVEKIVNIFNGTSCPSLGGKPKLFFIQACGGEQKDHGFEVASTSPEDESPGSNPEPDATPFQEGLRTFDQLDAISSLPTPSDIFVSYSTFPGFVSWRDPKSGSWYVETLDDIFEQWAHSEDLQSLLLRVANAVSVKGIYKQMPGCFNFLRKKLFFKTS
Consider B2, for which the “coupled reaction: pro-caspase-3 activation by caspase-9, Ac-DEVD-AFC hydrolysis” value in data set [2] was “XIAP, c-IAP-1 and c-IAP-2 each efficiently inhibited pro-caspase-3 activation and cleavage of the tetrapeptide substrate”; in data set [1], “XIAP, c-IAP-1 and c-IAP-2 each efficiently inhibited pro-caspase-3 activation and cleavage of the tetrapeptide substrate”; in data set [3] it was “XIAP, c-IAP-1 and c-IAP-2 each efficiently inhibited pro-caspase-3 activation and cleavage of the tetrapeptide substrate”. Further, in data set [1], the “cleavage of purified pro-caspase-3 by active caspase-9 (immunoblot)” value is on record as “Addition of an equimolar concentration of XIAP relative to caspase-9 strongly inhibited cleavage of pro-caspase-3”.

B3: purified recombinant active caspase-8 (catalytic subunit, Ser 217 to the C-terminus, His6-tagged) (protein)
chain: SESQTLDKVYQMKSKPRGYCLIINNHNFAKAREKVPKLHSIRDRNGTHLDAGALTTTFEELHFEIKPHDDCTVEQIYEILKIYQLMDHSNMDCFICCILSHGDKGIIYGTDGQEAPIYELTSQFTGLKCPSLAGKPKVFFIQACQGDNYQKGIPVETDSEEQPYLEMDLSSPQTRYIPDEADFLLGMATVNNCVSYRNPAEGTWYIQSLCQSLRERCPRGDDILTILTEVNYEVSNKDDKKNMGKQMPQPTFTLRKKLVFPSD
For B3, in data set [1], the “average ratio velocities (vi/vo) of DEVD-AFC hydrolysis” value is on record as “ratios of about 1.0” and the “substrate cleavage by purified caspase” value is given as “did not interfere with substrate cleavage by caspase-1, caspase-6 or caspase-8, even when added at a 50-fold molar excess”.

B4: purified recombinant caspase-6 (His6-tagged) (protein)
chain 1: AFYKREMFDPAEKYKMDHRRRGIALIFNHERFFWHLTLPERRGTCADRDNLTRRFSDLGFEVKCFNDLKAEELLLKIHEVSTVSHADADCFVCVFLSHGEGNHIYAYDAKIEIQTLTGLFKGDKCHSLVGKPKIFIIQACRGNQHDVPVIPLDVVD
chain 2: AASVYTLPAGADFLMCYSVAEGYYSHRETVNGSWYIQDLCEMLGKYGSSLEFTELLTLVNRKVSQRRVDFCKDPSAIGKKQVPCFASMLTKKLHFFPKSN
Regarding B4, in data set [1], the “average ratio velocities (vi/vo) of DEVD-AFC hydrolysis” value is “ratios of about 1.0” and the “substrate cleavage by purified caspase” value is reported as “did not interfere with substrate cleavage by caspase-1, caspase-6 or caspase-8, even when added at a 50-fold molar excess”.
